This is an account of results in patent publication US20150224205A1.

Several values for one entry are separate records, joined by “and”; a condition that tells them apart may be missing. Equal values may be shown once.

ALD-PEG(40 k)-C1 INH, mono PEGylated (PEG#/C1 INH = 1), sequence (P05155 23-500 limits assumed): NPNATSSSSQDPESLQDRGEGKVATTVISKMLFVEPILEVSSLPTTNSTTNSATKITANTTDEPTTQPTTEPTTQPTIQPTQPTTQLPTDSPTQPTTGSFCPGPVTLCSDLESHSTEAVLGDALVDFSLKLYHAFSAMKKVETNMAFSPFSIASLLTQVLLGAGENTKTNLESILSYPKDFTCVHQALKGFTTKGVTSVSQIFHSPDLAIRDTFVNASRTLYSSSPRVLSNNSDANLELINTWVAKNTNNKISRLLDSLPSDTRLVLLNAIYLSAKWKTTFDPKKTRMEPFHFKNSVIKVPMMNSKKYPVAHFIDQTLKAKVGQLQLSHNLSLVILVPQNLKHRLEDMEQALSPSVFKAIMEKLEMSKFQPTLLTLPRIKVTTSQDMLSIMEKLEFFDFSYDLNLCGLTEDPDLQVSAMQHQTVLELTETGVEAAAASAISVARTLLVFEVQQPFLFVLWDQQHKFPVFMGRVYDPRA
5k mPEG-BCN-C1 INH, sequence (P05155 23-500 limits assumed): as above
ALD-PEG2(40 k)-C1 INH, mono PEGylated (PEG#/C1 INH = 1), sequence (P05155 23-500 limits assumed): as above
ALD-PEG(40 k)-C1 INH, di PEGylated (PEG#/C1 INH = 2), sequence (P05155 23-500 limits assumed): as above
ALD-PEG2(40 k)-C1 INH, di PEGylated (PEG#/C1 INH = 2), sequence (P05155 23-500 limits assumed): as above

The target in the assay is T1, C1-esterase.
T1 sequence (P09871 16-688, species assumed, looked up): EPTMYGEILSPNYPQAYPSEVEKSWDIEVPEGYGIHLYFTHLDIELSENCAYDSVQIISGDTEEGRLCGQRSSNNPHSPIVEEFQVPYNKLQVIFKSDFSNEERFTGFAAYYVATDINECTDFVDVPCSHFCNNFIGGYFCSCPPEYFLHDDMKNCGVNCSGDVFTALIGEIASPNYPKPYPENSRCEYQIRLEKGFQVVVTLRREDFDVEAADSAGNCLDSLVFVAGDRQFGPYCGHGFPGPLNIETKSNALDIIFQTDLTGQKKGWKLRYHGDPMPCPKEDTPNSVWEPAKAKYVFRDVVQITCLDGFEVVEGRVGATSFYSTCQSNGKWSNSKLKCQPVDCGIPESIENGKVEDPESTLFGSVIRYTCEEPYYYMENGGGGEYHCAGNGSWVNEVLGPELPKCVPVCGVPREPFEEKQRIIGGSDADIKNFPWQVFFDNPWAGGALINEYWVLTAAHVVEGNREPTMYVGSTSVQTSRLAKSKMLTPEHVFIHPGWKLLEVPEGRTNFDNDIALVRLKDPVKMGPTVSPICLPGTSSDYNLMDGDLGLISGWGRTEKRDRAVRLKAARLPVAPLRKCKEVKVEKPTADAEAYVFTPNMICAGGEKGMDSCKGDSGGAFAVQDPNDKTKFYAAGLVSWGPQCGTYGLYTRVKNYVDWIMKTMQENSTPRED
Nature of the assay: cell-based or functional assay.
The substance “ALD-PEG(40 k)-C1 INH, di PEGylated (PEG#/C1 INH = 2) (from UniProt P05155 23-500)” yielded a % C1 INH Activity of 75% and a Specific Activity (U/mg) of 6.8 U/mg.

The substance “ALD-PEG2(40 k)-C1 INH, mono PEGylated (PEG#/C1 INH = 1) (from UniProt P05155 23-500)” returned a % C1 INH Activity of 81% and a Specific Activity (U/mg) of 7.4 U/mg.

In the case of “ALD-PEG(40 k)-C1 INH, mono PEGylated (PEG#/C1 INH = 1) (from UniProt P05155 23-500)”, the % C1 INH Activity worked out at 67%; the Specific Activity (U/mg) is 6.1 U/mg and 6.9 U/mg.

In turn, “ALD-PEG2(40 k)-C1 INH, di PEGylated (PEG#/C1 INH = 2) (from UniProt P05155 23-500)” came in with a % C1 INH Activity of 43% and a Specific Activity (U/mg) of 3.9 U/mg.

For “5k mPEG-BCN-C1 INH (from UniProt P05155 23-500)”, the % C1 INH Activity was 100%, the C1 in activity is 3.7 U/mg and the Specific Activity (U/mg) turned out to be 7.3 U/mg.
